Test results: IntAct's records for PubMed 17662948

Biological target: rd23b_human RAD23B (UniProt P54727)
Sequence (P54727 whole entry): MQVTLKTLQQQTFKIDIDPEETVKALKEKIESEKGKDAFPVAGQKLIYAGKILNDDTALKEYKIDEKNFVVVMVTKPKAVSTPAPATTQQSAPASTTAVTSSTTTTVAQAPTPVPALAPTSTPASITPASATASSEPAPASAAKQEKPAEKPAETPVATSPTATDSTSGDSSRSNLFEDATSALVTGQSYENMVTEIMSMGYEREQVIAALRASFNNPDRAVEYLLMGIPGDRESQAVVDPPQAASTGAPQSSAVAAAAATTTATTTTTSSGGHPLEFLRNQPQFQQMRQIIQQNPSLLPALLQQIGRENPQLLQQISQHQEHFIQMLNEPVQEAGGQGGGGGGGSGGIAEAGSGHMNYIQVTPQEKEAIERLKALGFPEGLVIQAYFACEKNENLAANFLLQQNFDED

Paired box protein Pax-3 (Mus musculus), P24610 K475R, sequence (P24610 whole entry K475R): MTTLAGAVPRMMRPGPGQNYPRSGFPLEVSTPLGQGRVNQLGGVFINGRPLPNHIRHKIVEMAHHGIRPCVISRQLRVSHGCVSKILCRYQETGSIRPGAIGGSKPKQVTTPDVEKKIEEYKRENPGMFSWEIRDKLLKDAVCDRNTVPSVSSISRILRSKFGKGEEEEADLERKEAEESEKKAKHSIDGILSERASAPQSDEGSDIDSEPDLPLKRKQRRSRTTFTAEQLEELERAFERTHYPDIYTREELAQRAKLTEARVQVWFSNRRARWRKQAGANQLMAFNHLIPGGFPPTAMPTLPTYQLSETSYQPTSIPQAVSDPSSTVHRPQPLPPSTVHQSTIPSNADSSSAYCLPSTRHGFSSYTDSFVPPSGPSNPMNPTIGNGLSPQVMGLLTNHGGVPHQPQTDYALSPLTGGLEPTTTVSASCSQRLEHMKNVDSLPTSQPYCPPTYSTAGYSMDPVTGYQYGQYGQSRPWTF
Paired box protein Pax-3 (Mus musculus), P24610 K437R, sequence (P24610 whole entry K437R): as the sequence (P24610 whole entry K475R) above, with K437R, R475K counted along it

Substance	effect of a mutation on the interaction
Paired box protein Pax-3 (Mus musculus), P24610 K475R	decreasing interaction
Paired box protein Pax-3 (Mus musculus), P24610 K437R	decreasing interaction
